Measurements from US20150037348A1 (AbbVie / Abbott, published 2015).
Where “and” joins values, the source holds several entries; their conditions need not be identical. Equal values may be shown once.

T1: recombinant human IL-12 (rhIL-12) (human, UniProt P29459 23-219; P29460 23-328)
T1 construct: disulfide-linked p35/p40 heterodimer (p70); also called IL-12 p70; rec. human IL12
T1 sequence (looked up) 1: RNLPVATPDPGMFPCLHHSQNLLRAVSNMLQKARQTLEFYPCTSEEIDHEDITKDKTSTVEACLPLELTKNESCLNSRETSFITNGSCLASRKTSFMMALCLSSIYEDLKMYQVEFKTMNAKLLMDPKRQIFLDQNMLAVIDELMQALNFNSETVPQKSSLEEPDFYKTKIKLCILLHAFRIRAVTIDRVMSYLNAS
T1 sequence (looked up) 2: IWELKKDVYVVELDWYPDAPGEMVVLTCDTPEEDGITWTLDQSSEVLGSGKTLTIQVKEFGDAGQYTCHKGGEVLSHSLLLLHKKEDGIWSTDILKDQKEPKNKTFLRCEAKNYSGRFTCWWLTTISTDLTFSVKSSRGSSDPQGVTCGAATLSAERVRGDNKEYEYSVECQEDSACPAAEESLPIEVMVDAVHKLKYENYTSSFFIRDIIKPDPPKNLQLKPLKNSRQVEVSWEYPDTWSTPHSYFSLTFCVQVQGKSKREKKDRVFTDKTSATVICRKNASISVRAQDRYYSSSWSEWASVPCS

T2: recombinant murine IL-12 (mouse, UniProt P43431 23-215; P43432 23-335)
T2 construct: rmIL12 of R&D Systems, Cat. No. 419-ML, in the BIAcore test; also called mouse IL-12; rmIL12
T2 sequence (looked up) 1: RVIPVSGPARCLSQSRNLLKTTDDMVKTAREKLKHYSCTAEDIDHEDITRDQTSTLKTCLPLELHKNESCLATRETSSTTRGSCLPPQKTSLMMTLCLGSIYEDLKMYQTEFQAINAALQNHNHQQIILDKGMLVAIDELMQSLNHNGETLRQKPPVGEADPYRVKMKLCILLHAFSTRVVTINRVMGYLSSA
T2 sequence (looked up) 2: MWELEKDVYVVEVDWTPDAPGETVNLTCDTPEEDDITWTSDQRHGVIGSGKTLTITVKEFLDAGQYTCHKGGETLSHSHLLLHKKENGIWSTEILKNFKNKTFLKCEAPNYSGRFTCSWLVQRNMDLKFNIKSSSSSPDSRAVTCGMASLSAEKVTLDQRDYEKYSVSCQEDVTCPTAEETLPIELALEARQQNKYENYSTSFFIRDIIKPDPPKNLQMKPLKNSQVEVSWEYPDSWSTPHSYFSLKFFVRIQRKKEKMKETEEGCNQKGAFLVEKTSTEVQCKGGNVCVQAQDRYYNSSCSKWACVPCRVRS

T3: cynomolgus IL-12 (PBMC supernatant) (cynomolgus monkey)
T3 chain 1: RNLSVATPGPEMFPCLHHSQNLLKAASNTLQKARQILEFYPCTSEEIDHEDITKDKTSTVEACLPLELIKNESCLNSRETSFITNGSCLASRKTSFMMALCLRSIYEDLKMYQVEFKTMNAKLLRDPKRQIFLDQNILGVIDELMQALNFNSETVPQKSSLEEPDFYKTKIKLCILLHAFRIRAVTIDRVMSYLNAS
T3 chain 2: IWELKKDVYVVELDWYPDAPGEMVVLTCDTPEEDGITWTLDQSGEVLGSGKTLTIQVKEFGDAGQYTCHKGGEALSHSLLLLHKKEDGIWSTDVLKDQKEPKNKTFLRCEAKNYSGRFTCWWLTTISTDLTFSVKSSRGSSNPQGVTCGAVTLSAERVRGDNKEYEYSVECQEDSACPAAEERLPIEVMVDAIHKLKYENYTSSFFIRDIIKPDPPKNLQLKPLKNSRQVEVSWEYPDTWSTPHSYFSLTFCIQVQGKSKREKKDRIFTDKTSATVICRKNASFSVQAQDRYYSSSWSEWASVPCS

T4: recombinant rhesus IL-12 (rhesus monkey, UniProt P48091 23-219; P48095 23-328)
T4 sequence (looked up) 1: T3 chain 1
T4 sequence (looked up) 2: T3 chain 2

T5: human IL-12 p40 subunit (free p40) (human, UniProt P29460 23-328)
T5 sequence (looked up): T1 sequence (looked up) 2

B1: J695 (antibody, human IgG1, V domains shown)
VH: QVQLVESGGGVVQPGRSLRLSCAASGFTFSSYGMHWVRQAPGKGLEWVAFIRYDGSNKYYADSVKGRFTISRDNSKNTLYLQMNSLRAEDTAVYYCKTHGSHDNWGQGTMVTVSS
VL: QSVLTQPPSVSGAPGQRVTISCSGSRSNIGSNTVKWYQQLPGTAPKLLIYYNDQRPSGVPDRFSGSKSGTSASLAITGLQAEDEADYYCQSYDRYTHPALLFGTGTKVTVLG
notes: human IgG1 with lambda light chain
B2: J695 (antibody, V domains shown)
VH: B1 VH
VL: B1 VL
notes: Human IgG1 with lambda light chain (detected with anti-human lambda); Made in CHO or COS cells

Key:
[1] = target: T1, recombinant human IL-12 (rhIL-12); assay: receptor binding assay, 125I-hIL-12 on PHA blasts
recombinant murine IL-12 = target: T2, recombinant murine IL-12; assay: BIAcore, COS J695 captured via goat anti-human IgG, cytokine in solution
Protocol: (§1) Before injection of the protein and immediately afterward, HBS buffer alone flowed through each flow cell. […] Cytokines were diluted in HBS running buffer and 50 μl aliquots were injected through the immobilized protein matrices at a flow rate of 5 μl/min. […] The net difference in baseline signal and signal after completion of cytokine injection was taken to represent the binding value of the particular sample. Biosensor matrices were regenerated using 100 mM HCl before injection of the next sample. To determine the dissociation constant (off-rate), association constant (on-rate), BIAcore kinetic evaluation software (version 2.1) was used.

[2] = target: T1, recombinant human IL-12 (rhIL-12); assay: BIAcore SPR, rhIL-12
Protocol: as §1
Kd was calculated for each separate experiment and then averaged.

[3] = target: T3, cynomolgus IL-12 (PBMC supernatant); assay: cell-based or functional assay
recombinant rhesus IL-12 = target: T4, recombinant rhesus IL-12; assay: cell-based or functional assay
[4] = target: T1, recombinant human IL-12 (rhIL-12); assay: cell-based or functional assay
human TNFα = human TNFα (human, UniProt P01375 77-233); assay: competition ELISA: soluble cytokine against J695 (100 ng/ml) binding to immobilized human IL-12
Sequence of human TNFα (P01375 77-233 limits assumed): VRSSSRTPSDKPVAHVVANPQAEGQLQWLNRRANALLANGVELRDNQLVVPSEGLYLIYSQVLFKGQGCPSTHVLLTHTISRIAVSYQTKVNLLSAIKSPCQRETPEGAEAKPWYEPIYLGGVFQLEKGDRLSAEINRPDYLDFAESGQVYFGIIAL
Protocol: (§2) The plates were washed 4 times and incubated for 1 h at room temperature with 100 μl mouse anti-human lambda-HRP (1:500 in PBS-T/BSA, Southern Biotech. Ass. Inc., Birmingham, Ala.). The plates were washed 4 times and developed with ABTS (Kirkegaard & Perry Lab, Gaithersburg, Md.) for 20-30 minutes in the dark. The OD₄₅₀ nm was read using a microplate reader (Molecular Devices, Menlo Park, Calif.).

human IL-2 = human IL-2 (human, UniProt P60568 21-153); assay: as above
Sequence of human IL-2 (P60568 21-153 limits assumed): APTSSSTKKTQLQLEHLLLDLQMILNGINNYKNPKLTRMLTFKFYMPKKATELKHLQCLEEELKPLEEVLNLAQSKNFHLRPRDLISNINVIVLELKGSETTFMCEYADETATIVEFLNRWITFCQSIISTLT
Protocol: as §2

[5] = target: T5, human IL-12 p40 subunit (free p40); assay: competition ELISA: soluble human IL-12 p40 (2 nM) against J695 binding to immobilized human IL-12
Protocol: as §2

Row | Binder | IC50 [1] [nM] | binding result (recombinant murine IL-12) | Kd [2] | IC50 (M), bioassay, Cyno IL-12 PBMC sup [3] [M] | IC50 (M), bioassay, Rhesus IL-12 Purified (recombinant rhesus IL-12) [M] | IC50 (M), bioassay, Human IL-12 Purified [4] [M] | binding result (human TNFα) | binding result (human IL-2) | binding result [5]
1 | B1 | 0.011 | no binding | 0.119 nM and 0.149 nM | 1e-11 | 1e-11 | 5e-12 | – | – | –
2 | B2 | – | – | – | – | – | – | no binding (tested: 2 nM) | no binding (tested: 2 nM) | binds
